Source: US20260167699A1 (Chugai, published 2026)
Where a chain is given by its changes, count along the chain named.

T1: FcγRIIa(H) extracellular domain, His-tagged (human, UniProt P12318 34-217)
T1 construct: extracellular domain; also called 2aH
T1 sequence: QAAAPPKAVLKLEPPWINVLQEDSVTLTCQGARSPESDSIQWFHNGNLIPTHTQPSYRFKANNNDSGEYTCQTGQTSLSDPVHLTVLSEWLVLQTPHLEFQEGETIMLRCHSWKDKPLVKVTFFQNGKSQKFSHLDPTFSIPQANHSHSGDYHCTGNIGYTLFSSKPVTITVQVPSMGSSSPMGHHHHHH

T2: FcγRIIa(R) extracellular domain, His-tagged (human, UniProt P12318 34-217)
T2 construct: extracellular domain; also called 2aR
T2 sequence: T1 sequence with H134R

T3: FcγRIIb extracellular domain, His-tagged (human, UniProt P31994 43-217)
T3 construct: extracellular domain; also called 2b
T3 sequence: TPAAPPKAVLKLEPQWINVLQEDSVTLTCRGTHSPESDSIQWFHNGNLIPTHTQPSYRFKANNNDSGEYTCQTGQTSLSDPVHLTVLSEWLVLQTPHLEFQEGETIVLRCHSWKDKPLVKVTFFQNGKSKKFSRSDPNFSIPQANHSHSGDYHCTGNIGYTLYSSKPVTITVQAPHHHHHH

B1: GpH7-A5/GpH7-B3 variant Q295_14T/GpL16-k0 (antibody, human IgG1, kappa)
heavy 1: not shown
heavy 2: not shown
light: DIVMTQSPLSLPVTPGEPASISCQASESLVHSNRNTYLHWYLQKPGQSPQLLIYKVSNRFSGVPDRFSGSGSGTDFTLKISRVEAEDVGVYYCSQNTHVPPTFGQGTKVEIERTVAAPSVFIFPPSDEQLKSGTASVVCLLNNFYPREAKVQWKVDNALQSGNSQESVTEQDSKDSTYSLSSTLTLSKADYEKHKVYACEVTHQGLSSPVTKSFNRGEC
B2: GpH7-A5/GpH7-B3 variant S267_19Q/GpL16-k0 (antibody, human IgG1, kappa)
heavy 1: not shown
heavy 2: not shown
light: B1 light
B3: GpH7-A5/GpH7-B3 variant S239_19Q/GpL16-k0 (antibody, human IgG1, kappa)
heavy 1: not shown
heavy 2: not shown
light: B1 light
B4: GpH7-A5/GpH7-B3 variant S239_18N/GpL16-k0 (antibody, human IgG1, kappa)
heavy 1: not shown
heavy 2: not shown
light: B1 light
B5: GpH7-A5/GpH7-B3 variant S239_14T/GpL16-k0 (antibody, human IgG1, kappa)
heavy 1: not shown
heavy 2: not shown
light: B1 light
B6: GpH7-A5/GpH7-B3 variant S239_08L/GpL16-k0 (antibody, human IgG1, kappa)
heavy 1: not shown
heavy 2: not shown
light: B1 light
B7: GpH7-A5/GpH7-B3 variant S239_03V/GpL16-k0 (antibody, human IgG1, kappa)
heavy 1: not shown
heavy 2: not shown
light: B1 light
B8: GpH7-A5/GpH7-B3 variant V266_08L/GpL16-k0 (antibody, human IgG1, kappa)
heavy 1: not shown
heavy 2: not shown
light: B1 light
B9: GpH7-A5/GpH7-B3 variant S239_01G/GpL16-k0 (antibody, human IgG1, kappa)
heavy 1: not shown
heavy 2: not shown
light: B1 light
B10: GpH7-A5/GpH7-B3 variant S267_09D/GpL16-k0 (antibody, human IgG1, kappa)
heavy 1: not shown
heavy 2: not shown
light: B1 light
B11: GpH7-A5/GpH7-B3 variant S239_09D/GpL16-k0 (antibody, human IgG1, kappa)
heavy 1: not shown
heavy 2: not shown
light: B1 light
B12: GpH7-A5/GpH7-B3 variant V266_02A/GpL16-k0 (antibody, human IgG1, kappa)
heavy 1: not shown
heavy 2: not shown
light: B1 light
B13: GpH7-A5/GpH7-B3 variant S239_07I/GpL16-k0 (antibody, human IgG1, kappa)
heavy 1: not shown
heavy 2: not shown
light: B1 light
B14: GpH7-A5/GpH7-B3 variant V266_07I/GpL16-k0 (antibody, human IgG1, kappa)
heavy 1: not shown
heavy 2: not shown
light: B1 light
B15: GpH7-A5/GpH7-B3 variant S239_10E/GpL16-k0 (antibody, human IgG1, kappa)
heavy 1: not shown
heavy 2: not shown
light: B1 light
B16: GpH7-A5/GpH7-B3 variant Q295_15Y/GpL16-k0 (antibody, human IgG1, kappa)
heavy 1: not shown
heavy 2: not shown
light: B1 light
B17: GpH7-A5/GpH7-B3 variant S239_02A/GpL16-k0 (antibody, human IgG1, kappa)
heavy 1: not shown
heavy 2: not shown
light: B1 light
B18: GpH7-A5/GpH7-B3 variant S239_06M/GpL16-k0 (antibody, human IgG1, kappa)
heavy 1: not shown
heavy 2: not shown
light: B1 light
B19: GpH7-A5/GpH7-B3 variant Q295_18N/GpL16-k0 (antibody, human IgG1, kappa)
heavy 1: not shown
heavy 2: not shown
light: B1 light
B20: GpH7-A5/GpH7-B3 variant V266_06M/GpL16-k0 (antibody, human IgG1, kappa)
heavy 1: not shown
heavy 2: not shown
light: B1 light
B21: GpH7-A5/GpH7-B3 variant S267_02A/GpL16-k0 (antibody, human IgG1, kappa)
heavy 1: not shown
heavy 2: not shown
light: B1 light
B22: GpH7-A5/GpH7-B3 variant Q295_16H/GpL16-k0 (antibody, human IgG1, kappa)
heavy 1: not shown
heavy 2: not shown
light: B1 light
B23: GpH7-A5/GpH7-B3 variant S267_10E/GpL16-k0 (antibody, human IgG1, kappa)
heavy 1: not shown
heavy 2: not shown
light: B1 light
B24: GpH7-A5/GpH7-B3 variant S267_01G/GpL16-k0 (antibody, human IgG1, kappa)
heavy 1: not shown
heavy 2: not shown
light: B1 light

target: T1, FcγRIIa(H) extracellular domain, …; experiment: SPR, vs GpH7-A5/GpH7-B3/GpL16-k0 =100

| He/Con 2aH | Binder |
| --- | --- |
| 86.2 % of control | B1 |
| 61.9 % of control | B2 |
| 80 % of control | B3 |
| 91.1 % of control | B4 |
| 95.9 % of control | B5 |
| 101 % of control | B6 |
| 88 % of control | B7 |
| 106 % of control | B8 |
| 93.8 % of control | B9 |
| 107 % of control | B10 |
| 111 % of control | B11 |
| 69.7 % of control | B12 |
| 88.5 % of control | B13 |
| 107 % of control | B14 |
| 108 % of control | B15 |
| 89.3 % of control | B16 |
| 89.9 % of control | B17 |
| 95.4 % of control | B18 |
| 87.8 % of control | B19 |
| 84.8 % of control | B20 |
| 121 % of control | B21 |
| 90.1 % of control | B22 |
| 103 % of control | B23 |
| 72.1 % of control | B24 |

target: T2, FcγRIIa(R) extracellular domain, …; experiment: SPR, vs GpH7-A5/GpH7-B3/GpL16-k0 =100

| He/Con 2aR | Binder |
| --- | --- |
| 79.2 % of control | B1 |
| 145 % of control | B2 |
| 79.8 % of control | B3 |
| 104 % of control | B4 |
| 97.4 % of control | B5 |
| 114 % of control | B6 |
| 94.1 % of control | B7 |
| 152 % of control | B8 |
| 120 % of control | B9 |
| 186 % of control | B10 |
| 129 % of control | B11 |
| 88.8 % of control | B12 |
| 95.9 % of control | B13 |
| 129 % of control | B14 |
| 127 % of control | B15 |
| 82 % of control | B16 |
| 89.8 % of control | B17 |
| 94.7 % of control | B18 |
| 81.7 % of control | B19 |
| 161 % of control | B20 |
| 167 % of control | B21 |
| 80.5 % of control | B22 |
| 188 % of control | B23 |
| 121 % of control | B24 |

target: T3, FcγRIIb extracellular domain, His-tagged; experiment: SPR, vs GpH7-A5/GpH7-B3/GpL16-k0 =100

| He/Con 2b | Binder |
| --- | --- |
| 74.9 % of control | B1 |
| 228 % of control | B2 |
| 87.3 % of control | B3 |
| 121 % of control | B4 |
| 98.6 % of control | B5 |
| 142 % of control | B6 |
| 110 % of control | B7 |
| 248 % of control | B8 |
| 146 % of control | B9 |
| 326 % of control | B10 |
| 209 % of control | B11 |
| 85.1 % of control | B12 |
| 108 % of control | B13 |
| 160 % of control | B14 |
| 183 % of control | B15 |
| 73.3 % of control | B16 |
| 91.6 % of control | B17 |
| 102 % of control | B18 |
| 72.8 % of control | B19 |
| 264 % of control | B20 |
| 256 % of control | B21 |
| 70.3 % of control | B22 |
| 398 % of control | B23 |
| 110 % of control | B24 |

target: T4, FcγRIa extracellular domain, His-tagged (human, UniProt P12314 16-292); experiment: SPR, vs GpH7-A5/GpH7-B3/GpL16-k0 =100
T4 construct: extracellular domain; also called 1a
T4 sequence (P12314 other isoform, or with tags, fused parts or gaps): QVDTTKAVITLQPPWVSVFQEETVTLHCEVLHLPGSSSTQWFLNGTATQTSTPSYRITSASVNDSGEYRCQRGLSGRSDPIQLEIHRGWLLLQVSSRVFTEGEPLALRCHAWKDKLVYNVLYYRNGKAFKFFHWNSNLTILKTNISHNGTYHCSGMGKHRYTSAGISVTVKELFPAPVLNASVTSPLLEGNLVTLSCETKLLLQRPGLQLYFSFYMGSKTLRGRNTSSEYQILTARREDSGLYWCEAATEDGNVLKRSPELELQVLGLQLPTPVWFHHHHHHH

| He/Con 1a | Binder |
| --- | --- |
| 101 % of control | B1 |
| 99.2 % of control | B2 |
| 104 % of control | B3 |
| 104 % of control | B4 |
| 104 % of control | B5 |
| 103 % of control | B6 |
| 98.9 % of control | B7 |
| 94.9 % of control | B8 |
| 104 % of control | B9 |
| 106 % of control | B10 |
| 104 % of control | B11 |
| 93.8 % of control | B12 |
| 101 % of control | B13 |
| 96.1 % of control | B14 |
| 108 % of control | B15 |
| 100 % of control | B16 |
| 103 % of control | B17 |
| 102 % of control | B18 |
| 101 % of control | B19 |
| 96.5 % of control | B20 |
| 105 % of control | B21 |
| 101 % of control | B22 |
| 102 % of control | B23 |
| 99.9 % of control | B24 |

target: T5, FcγRIIIa extracellular domain, His-tagged (human, UniProt P08637 17-208); experiment: SPR, vs GpH7-A5/GpH7-B3/GpL16-k0 =100
T5 construct: extracellular domain; also called 3a
T5 sequence (P08637 other isoform, or with tags, fused parts or gaps): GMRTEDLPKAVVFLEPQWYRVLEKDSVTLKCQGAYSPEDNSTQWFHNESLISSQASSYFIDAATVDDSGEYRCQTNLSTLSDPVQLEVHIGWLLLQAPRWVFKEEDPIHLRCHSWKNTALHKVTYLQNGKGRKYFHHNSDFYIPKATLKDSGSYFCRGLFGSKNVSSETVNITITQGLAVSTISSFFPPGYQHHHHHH

| He/Con 3a | Binder |
| --- | --- |
| 120 % of control | B1 |
| 64.3 % of control | B2 |
| 53.8 % of control | B3 |
| 104 % of control | B4 |
| 93 % of control | B5 |
| 90 % of control | B6 |
| 72.4 % of control | B7 |
| 117 % of control | B8 |
| 72 % of control | B9 |
| 179 % of control | B10 |
| 156 % of control | B11 |
| 56.8 % of control | B12 |
| 75 % of control | B13 |
| 113 % of control | B14 |
| 171 % of control | B15 |
| 81.5 % of control | B16 |
| 70.9 % of control | B17 |
| 73.9 % of control | B18 |
| 85.7 % of control | B19 |
| 84.9 % of control | B20 |
| 149 % of control | B21 |
| 80.2 % of control | B22 |
| 90.9 % of control | B23 |
| 53.3 % of control | B24 |
